Laboratory results as given in patent publication US20050287527A1, “Quantitative ranking of transient ligand binding to target biomolecules” (National Research Council of Canada, priority 2002, published 2005).
Each block holds one substance with its values, some of them ahead of it.

Columns and labels:
human α-thrombin = biological target: T1, human α-thrombin (Homo sapiens, UniProt P00734); test: 15N CPMG NMR relaxation dispersion of peptide ligand with human thrombin, fitting of koff; type: binding; settings: 288 K, two-site exchange
T1 construct: in complex with human α-thrombin

human prothrombin [1] = biological target: T2, human prothrombin (Homo sapiens, UniProt P00734); test: 15N CPMG NMR relaxation dispersion of peptide ligand with human prothrombin, fitting of koff; type: binding
Experimental: Dried powder of the purified peptide was weighed using a Sartorius Supermicro S4™ balance and dissolved at ˜1.5 mM in an aqueous solution (10% D2O) that was 50 mM in NaCl and 50 mM in sodium phosphate at pH 5.5. Carefully measured volume aliquots of human prothrombin at a stock concentration of 0.3 mM were added to the peptide solution to produce molar ratios of ˜1:45, ˜1:35, and ˜1:30 for the prothrombin and peptide concentrations, respectively.
The core of the NMR relaxation dispersion measurements is the relaxation-compensated CPMG pulse scheme (FIG. 1) (Millet, O., Loria, J. P., Kroenke, C. D., Pons, M., and Palmer, A. G. (2000) J.Am.Chem.Soc. 122, 2867-2877; and Loria, J. P., Rance, M., and Palmer, A. G. (1999) J.Am.Chem.Soc. 121, 2331-2332). A train of ^15N 180° pulses with a separation of 1 ms is applied at 100 ppm off the center of the HSQC spectrum at the beginning of the recycle delay d1 such that the total number of ^15N 180° pulses, 4N, is kept the same for all experiments with different CPMG pulse repetition rates. An XY-16 180° pulse train (Gullion, T., Baker, D. B., and Conradi, M. S. (1990) J.Magn.Reson. 89, 479-484) is also applied to both the ^1H and ^15N nuclei during the two INEPT periods, which limits the decay of exchange-broadened ligand resonances. Further enhancement in sensitivity was achieved by using the 3919 WATERGATE sequence for water suppression (Piotto, M., Saudek, V., and Sklenar, V. (1992) J.Biomol.NMR 2, 661-665). The 90° and 180° RF pulses are represented by narrow and wide bars, respectively, applied along the +X axis unless specified otherwise. The open rectangles are water-selective soft pulses with duration of 2 ms. During data acquisition, ^15N decoupling is achieved using a GARP sequence (Shaka, A. J., Barker, P. B., and Freeman, R. (1985) J.Magn.Reson. 64, 547-552) with an RF field of 1.0 kHz (at 500 MHz) or 1.2 kHz (at 800 MHz). The delays are: Δ=2.7 ms, τ=1 ms, d2=d1-4(N-n)τ and τCPMG=(T/4n−pw180N), where T is the total duration of the ^15N CPMG pulse train and pw^180N is the width of the ^15N 180° pulse. Sinebell-shaped gradient pulses with a duration of 1 ms are used with gradient strengths of g1=5 G/cm, g2=6 G/cm, g3=1.2 G/cm, g4=6 G/cm, and g5=10 G/cm. The phases of some RF pulses are the same as those reported previously with φ1=+X−X, φ2=4(+X) 4(−X) and φ3=2(+X) 2(+Y) 2(−X) 2(−Y) (Millet, O., Loria, J. P., Kroenke, C. D., Pons, M., and Palmer, A. G. (2000) J.Am. Chem. Soc. 122, 2867-2877), except that the phases for the last ^15N 90° pulse, the WATERGATE sequence and the RF receiver are cycled as φ4=4(+X) 4(−X), φ5=8(+X) 8(+Y), φ6=8(−X) 8(−Y) and receiver=(+X−X−X+X) 2(−X+X+X−X) (+X−X−X+X). Phase-sensitive ^1H—^15N HSQC spectra were obtained by incrementing φ4, according to the States-TPPI scheme (Marion, D., Ikura, M., Tschudin, R., and Bax, A. (1989) J.Magn.Reson. 85, 393-). […] NMR data were collected at ^15N frequencies of 50.684 and 81.076 MHz using Bruker Avance/DRX 500 and 800 MHz NMR spectrometers. The total length of the ^15N CPMG pulse train, T (FIG. 1), is kept at a constant value of 40 ms and the total number (4N) of the ^15N CPMG 1800 pulses was set to 100.
For the specific application herein, values for koff, kon′, koff^1, koff^2, kon^−1, k1, k2, R2b(500 MHz), R2b(800 MHz), δωb, δωb1 and δωb2 (FIG. 2) were fitted as independent variables. Values kon^−2, pb, pb1, pb2, and pf=(1−pb1−pb2), with p standing for the population of the corresponding species, were derived using the condition of microscopic reversibility kijpi=kjipj, where kij denotes the exchange rate constant for the transformation of species i into species j.

thrombin [2] = biological target: T3, thrombin (Homo sapiens, UniProt P00734); settings: cited from earlier work
human prothrombin [3] = biological target: T2, human prothrombin; settings: binding with human prothrombin; previous reports; cited from earlier work
thrombin [4] = biological target: T3, thrombin; test: Proteolytic cleavage of FD22 by active thrombin; type: biochemical; parameters: in complex with human α-thrombin; settings: peptide ~0.9 mM, 50 mM sodium phosphate, 0.2 mM EDTA, pH 5.5, active thrombin added
Experimental: Titration of the thrombin-cleaved FD22 peptide was carried out as follows. The sample of FD22 was concentrated by Speed-Vac to 40 μl and 180 μl of a concentrated thrombin solution were added to give a final thrombin:peptide ratio of approximately 1:20 in 60 mM sodium phosphate buffer, 0.2 mM EDTA, 10% D2O, at pH 5.5. Additional steps of thrombin titrations were carried out by the addition of the human […]-thrombin concentrated to ˜8 mg/ml.
FD22 has the sequence of Phe-Asp45-Pro-Arg-Pro-Gln-Ser50-His-Asn-Asp-Gly-Asp55-Phe-Glu-Glu-Ile-Pro60-Glu-Glu-Tyr-Leu-Gln65 (SEQ ID NO:20) and binds to thrombin via both the anion-binding exosite-I and the catalytic active site. The addition of active thrombin to the peptide FD22 (dissolved at a concentration of ˜0.9 mM in 50 mM sodium phosphate buffer, 10% D2O, 0.2 mM EDTA, at pH 5.5), caused slow and specific proteolytic cleavage at the Arg47-Pro48 peptide bond (taking >60 hours for the cleavage to complete). Upon completion of the cleavage, the sample contains a mixture of two peptides, Phe-Asp45-Pro-Arg (FD22-N) (SEQ ID NO:17) and Pro-Gln-Ser50-His-Asn-Asp-Gly-Asp55-Phe-Glu-Glu-Ile-Pro60-Glu-Glu-Tyr-Leu-Gln65 (FD22-C) (SEQ ID NO:18) that should bind separately to the active site and the anion-binding exosite I of thrombin.

thrombin [5] = biological target: T3, thrombin; test: Inhibition of human thrombin; type: biochemical; settings: bivalent inhibitor of human thrombin
[6] = "linear" three-site exchange model, Phe56, Glu57, Ile59 simultaneously
[7] = general ("full") three-site exchange, Phe56, Glu57, Ile59 simultaneously
[8] = residue Glu57, "linear" three-site exchange model, exchange between bound states

koff (human α-thrombin; residue Leu64 (FD22-C fragment), simultaneous fit at three α-thrombin concentrations): ~400 s⁻¹
koff (human α-thrombin; residue Phe56 (FD22-C fragment), highest α-thrombin concentration only): ~400 s⁻¹
koff (human α-thrombin; residue Tyr63 (FD22-C fragment), simultaneous fit at three α-thrombin concentrations): ~100 s⁻¹
Substance: Pro-Gln-Ser50-His-Asn-Asp-Gly-Asp55-Phe-Glu-Glu-Ile-Pro60-Glu-Glu-Tyr-Leu-Gln65 (PQSHNDGDFEEIPEEYLQ; Anti-thrombin peptide) [FD22-C]

k1 (human prothrombin [1]; [6]): 560 ± 510 s⁻¹
kex=k1+k2 (human prothrombin [1]; [6]): 700±500 s^1
k1 (human prothrombin [1]; [7]): 66 ± 57 s⁻¹
k2 (human prothrombin [1]; [7]): 110 ± 130 s⁻¹
kex=k1+k2 (human prothrombin [1]; [7]): 180 ± 150 s⁻¹
k1 (human prothrombin [1]; [8]): 50 ± 30 s⁻¹
k2 (human prothrombin [1]; [8]): 150 ± 70 s⁻¹
Substance: N-acetyl-*Asp-*Phe-*Glu-*Glu-*Ile-Pro-Glu-Glu-Tyr-Leu-Gln [N-acetyl-Hir(55-65), anti-thrombin peptide]
affinity for human thrombin compared with the same site on human prothrombin (thrombin [2]): higher affinity
Kd (human prothrombin [3]): 100 to 300 µM

time for the cleavage at the Arg47-Pro48 peptide bond to complete (thrombin [4]): > 60 h
IC50 (thrombin [5]): ~0.02 µM
Substance: Phe-Asp45-Pro-Arg-Pro-Gln-Ser50-His-Asn-Asp-Gly-Asp55-Phe-Glu-Glu-Ile-Pro60-Glu-Glu-Tyr-Leu-Gln65 (FDPRPQSHNDGDFEEIPEEYLQ; Anti-thrombin peptide) [FD22]
